System: HA-βarrestin2 1-185

endogenous Src of Hep3B hepatocytes was tested, and the “insulin-stimulated phosphorylations of Akt, GSK3P, and Foxo1” value was “markedly reduced in the presence of βarrestin2 1-185”.

From US20110245145
